According to patent publication US20260209317A1 (US Dept. of Health and Human Services, published 2026):
Read-outs that look alike come from different tables or passages of the source.

Experiments:
[1] = biological target: T1, SARS-CoV-2 Omicron BA.4.6 spike protein (on pseudotyped lentivirus) (SARS-CoV-2); assay: cell-based or functional assay
[2] = biological target: T2, SARS-CoV-2 Omicron BA.4/BA.5 spike protein (on pseudotyped lentivirus) (SARS-CoV-2, UniProt P0DTC2 14-1273); assay: cell-based or functional assay
[3] = biological target: T3, SARS-CoV-2 Omicron BQ.1.1 spike protein (on pseudotyped lentivirus) (SARS-CoV-2, UniProt P0DTC2 14-1273); assay: cell-based or functional assay
[4] = biological target: T4, SARS-CoV-2 Omicron BA.2.75 spike protein (on pseudotyped lentivirus) (SARS-CoV-2, UniProt P0DTC2 14-1273); assay: cell-based or functional assay
[5] = biological target: T5, SARS-CoV-2 D614G spike protein (on pseudotyped lentivirus) (SARS-CoV-2, UniProt P0DTC2 14-1273); assay: cell-based or functional assay
[6] = biological target: T6, SARS-CoV-2 P.1 spike protein (on pseudotyped lentivirus) (SARS-CoV-2); assay: cell-based or functional assay
[7] = biological target: T7, SARS-CoV-2 Omicron XBB spike protein (on pseudotyped lentivirus) (SARS-CoV-2, UniProt P0DTC2 14-1273); assay: cell-based or functional assay
[8] = biological target: T8, SARS-CoV-2 Omicron BJ.1 spike protein (on pseudotyped lentivirus) (SARS-CoV-2, UniProt P0DTC2 14-1273); assay: cell-based or functional assay
[9] = biological target: T9, SARS-CoV-2 B.1.617.2 spike protein (on pseudotyped lentivirus) (SARS-CoV-2); assay: cell-based or functional assay
[10] = biological target: T10, SARS-CoV-2 Omicron BA.2 spike protein (on pseudotyped lentivirus) (SARS-CoV-2); assay: cell-based or functional assay
[11] = biological target: T11, SARS-CoV-2 B.1.351 spike protein (on pseudotyped lentivirus) (SARS-CoV-2); assay: cell-based or functional assay
[12] = biological target: T12, SARS-CoV-2 Omicron BA.2.75.2 spike protein (on pseudotyped lentivirus) (SARS-CoV-2); assay: cell-based or functional assay
[13] = biological target: T13, SARS-CoV-2 B.1.1.7 spike protein (on pseudotyped lentivirus) (SARS-CoV-2); assay: cell-based or functional assay
[14] = biological target: T1, SARS-CoV-2 Omicron BA.4.6 spike protein …; assay: cell-based or functional assay; remark: listed apart in the source
[15] = biological target: T2, SARS-CoV-2 Omicron BA.4/BA.5 spike …; assay: cell-based or functional assay; remark: listed apart in the source
[16] = biological target: T3, SARS-CoV-2 Omicron BQ.1.1 spike protein …; assay: cell-based or functional assay; remark: listed apart in the source
[17] = biological target: T4, SARS-CoV-2 Omicron BA.2.75 spike …; assay: cell-based or functional assay; remark: listed apart in the source
[18] = biological target: T5, SARS-CoV-2 D614G spike protein (on …); assay: cell-based or functional assay; remark: listed apart in the source
[19] = biological target: T6, SARS-CoV-2 P.1 spike protein (on …); assay: cell-based or functional assay; remark: listed apart in the source
[20] = biological target: T7, SARS-CoV-2 Omicron XBB spike protein …; assay: cell-based or functional assay; remark: listed apart in the source
[21] = biological target: T8, SARS-CoV-2 Omicron BJ.1 spike protein …; assay: cell-based or functional assay; remark: listed apart in the source
[22] = biological target: T9, SARS-CoV-2 B.1.617.2 spike protein (on …); assay: cell-based or functional assay; remark: listed apart in the source
[23] = biological target: T10, SARS-CoV-2 Omicron BA.2 spike protein …; assay: cell-based or functional assay; remark: listed apart in the source
[24] = biological target: T11, SARS-CoV-2 B.1.351 spike protein (on …); assay: cell-based or functional assay; remark: listed apart in the source
[25] = biological target: T12, SARS-CoV-2 Omicron BA.2.75.2 spike …; assay: cell-based or functional assay; remark: listed apart in the source
[26] = biological target: T13, SARS-CoV-2 B.1.1.7 spike protein (on …); assay: cell-based or functional assay; remark: listed apart in the source
[27] = biological target: SARS-CoV-2 omicron-BA.1 RBD protein (SARS-CoV-2, UniProt P0DTC2 319-541)

B1: B2-269.1 (antibody, V domains shown)
VH: EVQLVESGGGLVQPGGSLRLSCAASGITVSSNYMSWVRQPPGKGLDWVSLIFSGGSTYYADSVKGRFTISRDNSKNTLYLQMNSLRAEDTAVYYCARVGVAVAGTDYDIWGQGTMVTVSS
VL: DIQMTQSPSSLSASVGDRVTITCQASQDINKYLNWYQQKPGKAPKLLIYDASNLETGVPSRFSGSGSGTDFTFTISSLQPEDIATYYCLHYENLPLSFGGGTKVEIK
- neutralization IC50 [1]: < 0.1 µg/mL
- neutralization IC50 [2]: < 0.1 µg/mL
- neutralization IC50 [3]: < 0.1 µg/mL
- neutralization IC50 [4]: < 1.1 µg/mL
- neutralization IC50 [5]: < 0.1 µg/mL
- neutralization IC50 [6]: < 0.1 µg/mL
- neutralization IC50 [7]: < 1.1 µg/mL
- neutralization IC50 [8]: < 0.1 µg/mL
- neutralization IC50 [9]: < 0.1 µg/mL
- neutralization IC50 [10]: < 0.1 µg/mL
- neutralization IC50 [11]: < 0.1 µg/mL
- neutralization IC50 [12]: < 1.1 µg/mL
- neutralization IC50 [13]: < 0.1 µg/mL
- neutralization IC50 [14]: 0.011 µg/mL
- neutralization IC80 [14]: 0.031 µg/mL
- neutralization IC50 [15]: 0.013 µg/mL
- neutralization IC80 [15]: 0.036 µg/mL
- neutralization IC50 [16]: 0.126 µg/mL
- neutralization IC80 [16]: 0.576 µg/mL
- neutralization IC50 [17]: 1.14 µg/mL
- neutralization IC80 [17]: 3.54 µg/mL
- neutralization IC50 [18]: 0.017 µg/mL
- neutralization IC80 [18]: 0.039 µg/mL
- neutralization IC50 [19]: 0.01 µg/mL
- neutralization IC80 [19]: 0.025 µg/mL
- neutralization IC50 [20]: 0.179 µg/mL
- neutralization IC80 [20]: 3.56 µg/mL
- neutralization IC50 [21]: 0.001 µg/mL
- neutralization IC80 [21]: 0.008 µg/mL
- neutralization IC50 [22]: 0.028 µg/mL
- neutralization IC80 [22]: 0.054 µg/mL
- neutralization IC50 [23]: 0.01 µg/mL
- neutralization IC80 [23]: 0.032 µg/mL
- neutralization IC50 [24]: 0.007 µg/mL
- neutralization IC80 [24]: 0.022 µg/mL
- neutralization IC50 [25]: 0.709 µg/mL
- neutralization IC80 [25]: 2.5 µg/mL
- neutralization IC50 [26]: 0.02 µg/mL
- neutralization IC80 [26]: 0.034 µg/mL
- EC50 (read off the curve) [27]: ~0.04 µg/mL
